Data set [1] concerns T1, BRSK2 MASLQVGDSLLETSCGSPHYRRR
T1 sequence: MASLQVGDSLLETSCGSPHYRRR
Kind of data set: kinetic analysis of peptide phosphorylation by the LKB1:STRAD:MO25 complex, nonlinear regression.

For data set [2], the system named is T2, MARK3 FSNEFTVGGKLDTFCGSPPYRRR
T2 sequence: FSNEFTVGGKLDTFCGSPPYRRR
The description is as above.

The subject of data set [3] is T3, SIK FGNFYKSGEPLSTWCGSPPYRRR
T3 sequence: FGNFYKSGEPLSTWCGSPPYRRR
Described as above.

For data set [4], the system named is T4, MELK AKPKGNKDYHLQTCCGSLAYRRR
T4 sequence: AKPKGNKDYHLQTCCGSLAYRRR
The description is as above.

Data set [5] has as its system T1, BRSK2 MASLQVGDSLLETSCGSPHYRRR
For data set [6], the system named is T5, LKBtide peptide (NUAK2 T-loop peptide).
T5 sequence: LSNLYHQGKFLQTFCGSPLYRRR

Data set [7] has as its system T2, MARK3 FSNEFTVGGKLDTFCGSPPYRRR
The test system of data set [8] is peptide derived from the T-loop of AMPKα1 (Example 4, FIG. 26A).
In data set [9] the test system is T3, SIK FGNFYKSGEPLSTWCGSPPYRRR
Data set [10] relates to T4, MELK AKPKGNKDYHLQTCCGSLAYRRR
The target in data set [11] is T6, bacterially expressed MO25α (human, UniProt Q9Y376 1-341).
T6 construct: Expressed as GST fusion from pGEX-6T in E. coli BL21; GST tag cleaved off; also called MO25α protein (E. coli)
T6 sequence: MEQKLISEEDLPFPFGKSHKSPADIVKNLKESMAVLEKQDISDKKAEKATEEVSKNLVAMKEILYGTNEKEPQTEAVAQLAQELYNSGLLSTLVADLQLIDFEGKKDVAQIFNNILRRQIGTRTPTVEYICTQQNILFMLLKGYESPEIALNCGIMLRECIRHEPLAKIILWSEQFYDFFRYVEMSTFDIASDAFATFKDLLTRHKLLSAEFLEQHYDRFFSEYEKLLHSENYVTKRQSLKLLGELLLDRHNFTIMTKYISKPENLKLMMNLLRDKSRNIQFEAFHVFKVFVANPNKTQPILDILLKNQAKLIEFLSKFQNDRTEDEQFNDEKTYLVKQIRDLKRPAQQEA
The data set can be described thus: SPR (BiaCore 3000), biotinylated STRADα-C12 peptide on streptavidin chip, MO25α 6.25-3200 nM, steady-state fit. As to the method:
5 μg of the total cell lysates prior to affinity purification were also subjected to immunoblotting with anti-Myc antibody to ensure that Myc-MO25α was expressed at similar levels in each condition (lower panel). (B) 0.5 mg of the indicated cell lysates was incubated with 5 μg of an N-terminal biotinylated peptide encompassing either the C-terminal 12 residues STRADα conjugated to streptavidin-Sepharose ([…], termed STRADα-C12) or mutants of this peptide in which the indicated residues were individually mutated to Ala. Following isolation and washing of the beads, the samples were subjected to SDS-polyacrylamide gel electrophoresis and immunoblotted with an anti-MO25α antibody. (C) Binding of bacterially expressed MO25α to the indicated peptides was analysed by surface plasmon resonance BiaCore analysis as described in Materials and Methods. […] WEF-C12 corresponds to […], WEA-C12 corresponds to […], AEF-C12 corresponds to […], WAF-C12 corresponds to […], WEF-C6 corresponds to VDDWEF.
Biacore analysis. Binding was analysed in a BiaCore 3000 system (BiaCore AB, Stevenage, UK). The indicated biotinylated peptides were bound to a streptavidin-coated Sensor chip (SA) (20 response units, RU). […] Dissociation of MO25α from each peptide was monitored over a 1 min period. […]

Substrate in data set [12]: CC(C)C[C@H](NC(=O)[C@H](CC(N)=O)NC(=O)[C@H](CO)NC(=O)[C@@H](N)CC(C)C)C(=O)N[C@@H](Cc1ccc(O)cc1)C(=O)N[C@@H](Cc1c[nH]cn1)C(=O)N[C@@H](CCC(N)=O)C(=O)NCC(=O)N[C@@H](CCCCN)C(=O)N[C@@H](Cc1ccccc1)C(=O)N[C@@H](CC(C)C)C(=O)N[C@@H](CCC(N)=O)C(=O)N[C@H](C(=O)N[C@@H](Cc1ccccc1)C(=O)N[C@@H](CS)C(=O)NCC(=O)N[C@@H](CO)C(=O)N1CCC[C@H]1C(=O)N[C@@H](CC(C)C)C(=O)N[C@@H](Cc1ccc(O)cc1)C(=O)N[C@@H](CCCNC(=N)N)C(=O)N[C@@H](CCCNC(=N)N)C(=O)N[C@@H](CCCNC(=N)N)C(=O)O)[C@@H](C)O
Kind of data set: Kinetic analysis of phosphorylation of T-loop peptides by the LKB1:STRAD:MO25 complex (Example 4). It is filed as biochemical. Particulars: other: phosphorylation by LKB1 complex, nonlinear regression; pH 7.5; 30.0 °C. The protocol: FIG. 26. Identification of peptide substrates for LKB1. (A) Kinetic analysis of the phosphorylation of the indicated T-loop by the LKB1:STRAD:MO25 complex was performed. The T-loop Thr residue in each peptide is underlined and in boldface type and 3 Arg residues were added to the C-terminus of each T-loop peptide to enable their capture on phosphocellulose p81 paper. Km and Vmax values were determined from nonlinear regression. (B) An aliquot of each peptide phosphorylated by LKB1 complex was subjected to solid phase Edman sequencing and ^32P-radioactivity was measured after each cycle of Edman degradation. […] The results are expressed as the peptide kinase activity generated per mg of LKB1:STRAD:MO25 added to the assay. […]
Measurement of activation of AMPK-related kinases AMPKα1 catalytic subunit and AMPK-related kinases was measured following their phosphorylation with LKB1 as follows. […] After incubation at 30° C. for the times indicated in the figure legend, AMPKα1 catalytic domain or AMPK-related kinase activities were determined by adding 30 μl of 5 mM magnesium acetate, 0.1 mM [γ-^32P]-ATP (300 cpm/pmol) and 200 μM AMARA peptide (AMARAASAAALARRR (Dale et al., 1995)) as substrate. […] Kinetic data was analysed according to the Michaelis-Menten relationship by non-linear regression using the computer program GraphPad Prism (GraphPad Software Inc, San Diego, USA). […]

Where no end group is shown, it is not given here. The star is where a group is joined. C6spacer = spacer between biotin and the peptide; Biotin = O=C1N[C@H]2[C@H](CS[C@H]2CCCCC(=O)*)N1

B1: LKB1:STRAD:MO25 complex (Example 4, FIG. 26A) (enzyme, part only; not given: STRAD and MO25 subunits, GST)
chain: MDVADPEPLGLFSEGELMSVGMDTFIHRIDSTEVIYQPRRKRAKLIGKYLMGDLLGEGSYGKVKEVLDSETLCRRAVKILKKKKLRRIPNGEANVKKEIQLLRRLRHRNVIQLVDVLYNEEKQKMYMVMEYCVCGMQEMLDSVPEKRFPVCQAHGYFRQLIDGLEYLHSQGIVHKDIKPGNLLLTTNGTLKISDLGVAEALHPFAVDDTCRTSQGSPAFQPPEIANGLDTFSGFKVDIWSAGVTLYNITTGLYPFEGDNIYKLFENIGRGDFTIPCDCGPPLSDLLRGMLEYEPAKRFSIRQIRQHSWFRKKHPLAEALVPIPPSPDTKDRWRSMTVVPYLEDLHGRAEEEEEEDLFDIEDGIIYTQDFTVPGQVLEEEVGQNGQSHSLPKAVCVNGTEPQLSSKVKPEGRPGTANPARKVCSSNKIRRLSACKQQ
In the case of B1, the Km in [1] came out at 400 µM. The Km in [2] was 620 µM. Also, the Km in data set [3] stood at 460 µM. Further, the Michaelis-Menten constant (Km) in [4] was greater than 3000 µM. Moreover, in data set [5], the Vmax of phosphorylation of the BRSK2 T-loop peptide by the complex was determined as 10.6 U/mg and the Vmax/Km for the BRSK2 T-loop peptide (Vmax in U/mg, Km in mM) was 26. Moreover, in [6], the Vmax of phosphorylation of the NUAK2 T-loop peptide by the complex stood at 86.8 U/mg and the Vmax/Km for the NUAK2 T-loop peptide (Vmax in U/mg, Km in mM) turned out to be 578. Besides, in [7], the Vmax of phosphorylation of the MARK3 T-loop peptide by the complex was 10.2 U/mg and the Vmax/Km for the MARK3 T-loop peptide (Vmax in U/mg, Km in mM) amounted to 16. For the same molecule, in [8], the “Km (phosphorylation of the T-loop peptide)” value was “(Km, 1.4 mM)”; the Vmax of phosphorylation of the AMPK T-loop peptide by the complex was 94.1 U/mg; the Vmax/Km for the AMPK T-loop peptide (Vmax in U/mg, Km in mM) came out at 67. For the same molecule, in [9], the Vmax of phosphorylation of the SIK T-loop peptide by the complex is 63.9 U/mg and the Vmax/Km for the SIK T-loop peptide (Vmax in U/mg, Km in mM) was 139. In addition, the Vmax of phosphorylation of the MELK T-loop peptide by the complex in data set [10] was greater than 60 U/mg.

B2: STRADα-C12 peptide (Biotin-C6spacer-NLEELEVDDWEF) (peptide)
peptide: {Biotin-C6spacer}-NLEELEVDDWEF
notes: also called WEF-C12; C-terminal 12 residues of STRADα
In the case of B2, binding in data set [11] was put at a Kd of 850 nM. In other words, the sub-micromolar range.

B3: LKB1:STRAD:MO25 complex (Mus musculus) (protein)
chain: MDVADPEPLGLFSEGELMSVGMDTFIHRIDSTEVIYQPRRKRAKLIGKYLMGDLLGEGSYGKVKEVLDSETLCRRAVKILKKKKLRRIPNGEANVKKEIQLLRRLRHRNVIQLVDVLYNEEKQKMYMVMEYCVCGMQEMLDSVPEKRFPVCQAHGYFRQLIDGLEYLHSQGIVHKDIKPGNLLLTTNGTLKISDLGVAEALHPFAVDDTCRTSQGSPAFQPPEIANGLDTFSGFKVDIWSAGVTLYNITTGLYPFEGDNIYKLFENIGRGDFTIPCDCGPPLSDLLRGMLEYEPAKRFSIRQIRQHSWFRKKHPLAEALVPIPPSPDTKDRWRSMTVVPYLEDLHGRAEEEEEEDLFDIEDGIIYTQDFTVPGQVLEEEVGQNGQSHSLPKAVCVNGTEPQLSSKVKPEGRPGTANPARKVCSSNKIRRLSAC
notes: Constructs expressing the full length wild type and kinase dead mouse LKB1 have been described previously; made in house; host or cells: 293 cells, co-transfected
For the molecule B3, the Michaelis-Menten constant (Km) in data set [12] turned out to be 150 µM.

The record behind these values is patent US20070036793A1, “Methods for use of an lkb1/strad7mo25 complex” (priority 2003, published 2007).
